Here are results for five molecules from US20230122079A1 (published 2023).

Test [1] deals with CD3 on Jurkat cells (human). Description: cell ELISA; -uPa.
For test [2], the target named is CD3 on Jurkat cells (human). Description: cell ELISA. In general terms: An ELISA detects its analyte on a solid surface through an enzyme-linked reagent.
Test [3] deals with CD3 on Jurkat cells (human). Briefly: cell ELISA; +uPa.

CD3 on Jurkat cells (human), sequence (chain, as listed by the source, chain 1 of 4): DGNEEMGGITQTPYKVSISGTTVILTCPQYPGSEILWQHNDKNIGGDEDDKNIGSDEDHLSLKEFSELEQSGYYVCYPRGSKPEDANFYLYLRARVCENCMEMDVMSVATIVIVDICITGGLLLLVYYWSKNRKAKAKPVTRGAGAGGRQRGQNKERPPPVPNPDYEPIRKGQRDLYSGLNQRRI
CD3 on Jurkat cells (human), sequence (chain, as listed by the source, chain 2 of 4): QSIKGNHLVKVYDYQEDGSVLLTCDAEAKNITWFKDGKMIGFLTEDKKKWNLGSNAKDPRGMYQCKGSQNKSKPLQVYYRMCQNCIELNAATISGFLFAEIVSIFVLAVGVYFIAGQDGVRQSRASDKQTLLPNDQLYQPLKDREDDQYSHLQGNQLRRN
CD3 on Jurkat cells (human), sequence (chain, as listed by the source, chain 3 of 4): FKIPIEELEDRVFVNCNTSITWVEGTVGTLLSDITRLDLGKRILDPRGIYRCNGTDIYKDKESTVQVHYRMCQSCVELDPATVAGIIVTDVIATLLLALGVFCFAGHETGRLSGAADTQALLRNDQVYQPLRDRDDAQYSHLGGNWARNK
CD3 on Jurkat cells (human), sequence (chain, as listed by the source, chain 4 of 4): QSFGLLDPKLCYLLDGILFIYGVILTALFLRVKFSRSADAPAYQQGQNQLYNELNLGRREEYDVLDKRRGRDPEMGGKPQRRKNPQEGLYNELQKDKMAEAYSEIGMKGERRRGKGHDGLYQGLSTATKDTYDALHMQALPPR

B1: 30436 (WT PD-1: HA PD-L1 masked CD3 × Her2 Fab × scFv Fc, PD-1 cleavable), not treated with uPa (bispecific antibody)
heavy: not shown
light: AFTVTVPKDLYVVEYGSNMTIECKFPVEKQLDLAALQVFWMMEDKNIIQFVHGEEDLKVQHSSYRQRARLLKDQLSLGNAALQITDVKLQDAGVYTCLIAYKGADYKRITVKVNAEAAAKEAAAKDIQMTQSPSSLSASVGDRVTMTCSASSSVSYMNWYQQKPGKAPKRWIYDSSKLASGVPARFSGSGSGTDYTLTISSLQPEDFATYYCQQWSRNPPTFGGGTKLQITRTVAAPSVFIFPPSDEQLKSGTASVVCLLNNFYPREAKVQWKVDNALQSGNSQESVTEQDSKDSTYSLSSTLTLSKADYEKHKVYACEVTHQGLSSPVTKSFNRGEC
chain: not shown
Broadly, the EC50 is the concentration needed to bring the measured effect to its halfway point. Read a low EC50 as an effect from little substance. Take B1: the response with CD3 on Jurkat cells [1] was half-maximal at 178 nM (EC50).

B2: 31931 (Half-masked CD3 × Her2 Fab × scFv Fc, HA PD-L1 attached to LC) (bispecific antibody)
heavy: not shown
light: B1 light
chain: not shown
B2: the half-maximal effective concentration (EC50) with CD3 on Jurkat cells [2] is 5.33 nM.

B3: 30436 treated with uPa (bispecific antibody)
heavy: not shown
light: B1 light
chain: not shown
With B3, the EC50 with CD3 on Jurkat cells [3] was 6.22 nM.

B4: 31929 (Half-masked CD3 × Her2 Fab × scFv Fc, HA PD-1 attached to HC) (bispecific antibody)
heavy: not shown
light: DIQMTQSPSSLSASVGDRVTMTCSASSSVSYMNWYQQKPGKAPKRWIYDSSKLASGVPARFSGSGSGTDYTLTISSLQPEDFATYYCQQWSRNPPTFGGGTKLQITRTVAAPSVFIFPPSDEQLKSGTASVVCLLNNFYPREAKVQWKVDNALQSGNSQESVTEQDSKDSTYSLSSTLTLSKADYEKHKVYACEVTHQGLSSPVTKSFNRGEC
chain: not shown
Regarding B4, a half-maximal response with CD3 on Jurkat cells [2] (EC50) required 4.2 nM.

B5: 30421 (CD3 × Her2 Fab × scFv Fc without mask) (bispecific antibody)
heavy: not shown
light: B4 light
chain: not shown
Regarding B5, the EC50 in the test with CD3 on Jurkat cells [2] was determined as 1.22 nM.
